Data as given in patent US8158851B2, “Transgenic high tryptophan plants” (Monsanto Technology LLC, priority 2002, dated 2012).
Read-outs that look alike come from different tables or passages of the source.

What was measured:
[1] = target: T1, Rhizobium meliloti anthranilate synthase, monomeric (SEQ ID NO: 7) (Rhizobium meliloti, UniProt P15395); test: Activity assay of crude cell extract by HPLC; assay type: biochemical; details: BL-21 cells with pMON66596, HPLC, read-out: ICso (trp)
T1 construct: made in house; host or cells: E. coli BL-21, plasmid pMON66596 (pSE280)
T1 sequence (P15395 1-729): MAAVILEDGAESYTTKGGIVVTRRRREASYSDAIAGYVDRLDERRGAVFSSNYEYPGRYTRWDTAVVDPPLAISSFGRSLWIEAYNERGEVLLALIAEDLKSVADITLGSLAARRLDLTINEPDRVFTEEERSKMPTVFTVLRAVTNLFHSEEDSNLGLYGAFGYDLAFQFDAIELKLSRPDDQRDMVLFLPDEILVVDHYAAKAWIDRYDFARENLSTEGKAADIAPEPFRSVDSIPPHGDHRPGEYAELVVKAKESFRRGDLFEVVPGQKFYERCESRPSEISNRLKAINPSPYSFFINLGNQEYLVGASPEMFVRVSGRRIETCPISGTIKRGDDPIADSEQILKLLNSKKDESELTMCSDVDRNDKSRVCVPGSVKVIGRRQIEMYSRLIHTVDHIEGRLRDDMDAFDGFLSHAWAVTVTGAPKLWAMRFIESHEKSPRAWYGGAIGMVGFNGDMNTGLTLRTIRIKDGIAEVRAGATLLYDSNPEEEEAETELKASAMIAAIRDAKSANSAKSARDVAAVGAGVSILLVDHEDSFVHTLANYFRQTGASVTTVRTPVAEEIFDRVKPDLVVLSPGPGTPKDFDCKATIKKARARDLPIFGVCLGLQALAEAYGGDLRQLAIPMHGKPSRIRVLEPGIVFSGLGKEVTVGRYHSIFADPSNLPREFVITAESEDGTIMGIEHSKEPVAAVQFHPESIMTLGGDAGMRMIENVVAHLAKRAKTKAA
Description: pMON66596 was transformed into BL-21 cells and induced with IPTG to express protein.

Agro AS = Agro AS enzyme assay, HPLC end-point, desalted extracts of individual soybean seeds; assay type: biochemical, Agrobacterium tumefaciens; details: R1 soy seeds carrying the mutant allele
Protocol: The specific activity of anthranilate synthase was measured in eleven transformation events carrying the pMON58120 construct. Individual soybean immature seeds were analyzed using an HPLC-based end-point assay based on the method described by C. Paulsen (J. Chromatogr., 547:155-160 (1991)). Briefly, desalted extracts were generated from individual seeds in grinding buffer (100 mM Tris pH7.5, 10% glycerol, 1 mM EDTA, 1 mM DTT) and incubated for 30 min with reaction buffer (100 mM tris pH 7.5, 1 mM chorismate, 20 mM glutamine, and 10 mM MgCl2). Agro AS activity was measured in the presence or absence of 25 mM trp. The reaction was stopped with phosphoric acid and the amount of anthranilate formed was quantified by HPLC using a fluorescence detector set at 340 nm/excitation and 410 nm/emission.

[2] = test system: Agrobacterium tumefaciens AS; test: Anthranilate synthase enzyme assay and kinetic analysis of purified enzymes; assay type: biochemical; details: for Km: 25° C.
Protocol: Agrobacterium tumefaciens AS wild type and mutant enzymes were expressed in E. coli as described in Example 1. The purification of all the Agrobacterium tumefaciens AS enzymes, including wild type and mutants thereof, was performed at 4° C. The cells (approximate wet weight of 1 g) were suspended in 20 ml of purification buffer (50 mM potassium phosphate, pH 7.3, 10 mM MgCl2, 10 mM 2-mercaptoethanol, 10% glycerol) and lysed by ultrasonication (Branson sonifier Cell Disruptor, W185). Supernatant was collected after centrifugation of the homogenate at 20,000×g for 15 min. The supernatant was subjected to ammonium sulfate fractionation (30 to 65% saturation). The precipitate was collected after centrifugation at 20,000×g for 15 min and dissolved in 3 ml of the purification buffer and then loaded as a whole on an Econo-Pac 10DG desalting column, pre-equilibrated with the same buffer. Fractions containing the enzyme were detected by the developed assay and pooled. The pooled enzyme (4.3 mls) was loaded on a 10 ml DEAF Sephacel (Pharmacia Biotech) column (1.5×7.5 cm) equilibrated with the same buffer. The column was washed with 30 ml of the purification buffer and the enzyme was eluted with 30 ml of 50 mM NaCl in the same buffer. Fractions containing high AS activity were pooled and precipitated by 65% ammonium sulfate saturation and isolated and desalted as above. Fractions containing the enzyme were pooled and stored at −80° C.
The standard assay for Agrobacterium tumefaciens AS was performed at 25° C. in an assay buffer containing 100 mM potassium phosphate, pH 7.0, 10 mM MgCl2, 1 mM dithiothreitol, 200 μM chorismate and 10 mM L-glutamine. The reaction was started by adding 30 μl of enzyme to the reaction mixture and mixing. The formation of anthranilate was directly monitored by the absorbance increase at 320 m for 3 minutes. Initial rate of reaction was calculated as unit absorbance increase per second based on the slope of the absorbance change over the reaction time. Km for chorismate (Km^Cho) was determined in the total volume of 1 ml assay buffer containing 100 mM potassium phosphate, pH 7.0, 10 mM MgCl2, 1 mM dithiothreitol with 10 mM L-glutamine and varying the concentration of chorismate between 2.5-100 μM chorismate. The Km for glutamine (Km^Gln) was determined in the total volume of 1 ml assay buffer containing 100 mM potassium phosphate, pH 7.0, 10 mM MgCl2, 1 mM dithiothreitol with 200 μM chorismate and varying the concentration of L-glutamine between 0.1-2 mM L-glutamine. IC50 for tryptophan (IC50^Trp) was determined with in the total volume of 1 ml assay buffer containing 100 mM potassium phosphate, pH 7.0, 10 mM MgCl2, 1 mM dithiothreitol, 10 mM L-glutamine, 200 μM chorismate and varying the concentration of L-tryptophan between 0.1-10 mM L-tryptophan. Kinetic parameters and IC50 of AS were calculated after fitting the data to a non-linear regression program (GraFit).

soy seed = test: Free amino acid analysis of soy seed (tryptophan content); assay type: in vivo, Glycine max; details: R1 soy seeds expressing the mutant protein
Protocol: Amino Acid Extraction: About 50 mg of crushed soy seed (5 mg of Arabidopsis) material was placed in each centrifuge vial. One milliliter of 5% trichloroacetic acid was added to each sample (100 μl for Arabidopsis). The samples were vortexed, and allowed to sit, with agitation, at room temperature for 15 min. They were then microcentrifuged for 15 min at 14000 rpm. Some of the supernatant was then removed, placed in a HPLC vial and sealed. Samples were kept at 4° C. in the analysis queue.
Amino Acid Analysis: The reagents utilized for amino acid analysis included the OPA reagent (o-phthalaldehyde and 3-mercaptopropionic acid in borate buffer (Hewlett-Packard, PN 5061-3335)) where the borate buffer (0.4 N in water, pH 10.2). The analysis was performed using the Agilent 1100 series HPLC system as described in the Agilent Technical Publication, “Amino Acid Analysis Using Zorbax Eclipse-AAA Columns and the Agilent 1100 HPLC”, Mar. 17, 2000. First, 0.5 μl of the sample was derivatized with 2.5 μl of OPA reagent in 10 μl of borate buffer. Second, the derivative is injected onto a Eclipse XDB-C18 5 μm, 4.6×150 mm column using a flow rate of 1.2 ml/min. Amino acid concentrations were measured using fluorescence: excitation at 340 nm, emission at 450 nm. Elution was with a gradient of HPLC Buffers A and B according to Table A, where HPLC Buffer A was 40 mM Na2HPO4, pH=7.8 and HPLC Buffer B was 9:9:2::Methanol:Acetonitrile:Water.
Amino acid standards were prepared from the dry chemicals, using all amino acids of interest. Proline analysis required an additional derivatization step with 9-fluorenylmethyl-chloroformate (FMOC). Amino acid standards were also sometimes purchased in concentrations ranging from 0 to 100 μg/ml. Samples were reported in μg/g of seed powder.
Mature R1 seed is produced and analyzed for free amino acid content using fluorescence detection as described in Agilent Technologies Technical Bulletin REV14. Five seeds are chosen for single seed analysis from each event. […] The highest levels of tryptophan have a negative impact on germination.

[3] = test system: Ruta graveolens anthranilate synthase; details: Bohlmann et al. 1996; cited from earlier work

Molecule: N[C@@H](Cc1c[nH]c2ccccc12)C(=O)O [tryptophan, L-tryptophan]
- IC50 [1]: ~10 µM

B1: F298W (protein)
chain: MVTIIQDDGAETYETKGGIQVSRKRRPTDYANAIDNYIEKLDSHRGAVFSSNYEYPGRYTRWDTAIVDPPLGISCFGRKMWIEAYNGRGEVLLDFITEKLKATPDLTLGASSTRRLDLTVNEPDRVFTEEERSKIPTVFTALRAIVDLFYSSADSAIGLFGAFGYDLAFQFDAIKLSLARPEDQRDMVLFLPDEILVVDHYSAKAWIDRYDFEKDGMTTDGKSSDITPDPFKTTDTIPPKGDHRPGEYSELVVKAKESFRRGDLFEVVPGQKFMERCESNPSAISRRLKAINPSPYSWFINLGDQEYLVGASPEMFVRVSGRRIETCPISGTIKRGDDPIADSEQILKLLNSKKDESELTMCSDVDRNDKSRVCEPGSVKVIGRRQIEMYSRLIHTVDHIEGRLRDDMDAFDGFLSHAWAVTVTGAPKLWAMRFIEGHEKSPRAWYGGAIGMVGFNGDMNTGLTLRTIRIKDGIAEVRAGATLLNDSNPQEEEAETELKASAMISAIRDAKGTNSAATKRDAAKVGTGVKILLVDHEDSFVHTLANYFRQTGATVSTVRSPVAADVFDRFQPDLVVLSPGPGSPTDFDCKATIKAARARDLPIFGVCLGLQALAEAYGGELRQLAVPMHGKPSRIRVLEPGLVFSGLGKEVTVGRYHSIFADPATLPRDFIITAESEDGTIMGIEHAKEPVAAVQFHPESIMTLGQDAGMRMIENVVVHLTRKAKTKAA
modifications: An A. tumefaciens mutant.
- tryptophan-resistant anthranilate synthase activity (Agro AS): Very high levels
- Km ([2]; pH 7.0, 200 μM chorismate, L-glutamine varied, read-out: Km^Gln): 140 µM
- Km ([2]; pH 7.0, 10 mM L-glutamine, chorismate varied, read-out: Km^Cho): 18 µM
- IC50 ([2]; inhibition by L-tryptophan, 10 mM L-glutamine, 200 μM chorismate): 450 µM
- kcat ([2]; purified enzyme from E. coli): 0.44 s⁻¹
- amounts of tryptophan (soy seed): very high amounts of tryptophan

B2: Ruta graveolens anthranilate synthase α-subunit: Ruta graveolens anthranilate synthase α-subunit isoenzyme, Genbank GI 960291 (protein, listed as Ruta graveolens)
chain: MSAAATSMQSLKFSNRLVPPSRRLSPVPNNVTCNNLPKSAAPVRTVKCCASSWNSTINGAAATTNGASAASNGASTTTTTYVSDATRFIDSSKRANLVPLYRCIFADHLTPVLAYRCLVQEDDKETPSFLFESVEPGRISTVGRYSVVGAHPVMEVIAKDNMVTVMDHEKGSLVEEVVDDPMEIPRRISEDWKPQIIDDLPEAFCGGWVGFFSYDTVRYVEKKKLPFSKAPQDDRNLADMHLGLYNDVIVFDHVEKKVYVIHWVRLNQQSSEEKAYAEGLEHLERLVSRVQDENTPRLAPGSIDLHTGHFGPPLKKSNMTCEEYKMAVLAAKEHIQAGDIFQIVLSQRFERRTFADPFEVYRALRVVNPSPYMTYMQARGCVLVASSPEILTRVKKNKIVNRPLAGTARRGRTTEEDEMLETQLLKDAKQCAEHVMLVDLGRNDVGKVSKSGSVKVEKLMNVERYSHVMHISSTVTGELQDNLSCWDALRAALPVGTVSGAPKVKAMELIDELEVNRRGPYSGGFGGISFTGDMDIALALRTIVFQTGTRYDTMYSYKNATKRRQWVAYLQAGAGIVADSDPDDEHRECQNKAAGLARAIDLAESAFVNKSSS
- sensitivity to tryptophan inhibition [3]: less sensitive to tryptophan inhibition
